In patent US20230295297A1 (Alector, published 2023):

T1: mouse TREM2 on cells (mouse, UniProt Q99NH8 19-227)
T1 construct: recombinant on BWZ cells (with DAP12) and native on mouse macrophages; also called BWZmT2; BWZ T2
T1 sequence: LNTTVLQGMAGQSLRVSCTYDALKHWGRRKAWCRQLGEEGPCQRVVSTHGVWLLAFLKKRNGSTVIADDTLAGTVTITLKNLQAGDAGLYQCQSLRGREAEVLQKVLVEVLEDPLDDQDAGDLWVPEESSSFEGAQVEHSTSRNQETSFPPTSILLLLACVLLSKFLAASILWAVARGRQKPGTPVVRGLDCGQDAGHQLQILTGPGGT

T2: recombinant human TREM2-DAP12 fusion protein expressed on cells (human)
T2 construct: also called HEKhT2; 293 cells expressing human TREM2; not shown: None of these limits is stated
T2 chain: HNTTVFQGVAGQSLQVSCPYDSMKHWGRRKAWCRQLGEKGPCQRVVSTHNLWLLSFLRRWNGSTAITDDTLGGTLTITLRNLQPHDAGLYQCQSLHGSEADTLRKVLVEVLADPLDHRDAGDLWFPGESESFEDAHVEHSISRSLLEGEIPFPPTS

T3: human TREM2 on primary cells (human, UniProt Q9NZC2 19-230)
T3 construct: also called TREM2 on hDC; hMAC
T3 sequence: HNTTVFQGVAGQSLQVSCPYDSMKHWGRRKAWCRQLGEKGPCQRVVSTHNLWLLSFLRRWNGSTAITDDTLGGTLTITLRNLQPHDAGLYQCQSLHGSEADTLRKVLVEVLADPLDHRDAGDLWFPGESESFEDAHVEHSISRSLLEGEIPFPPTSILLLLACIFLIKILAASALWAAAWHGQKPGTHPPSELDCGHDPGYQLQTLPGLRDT


Legend:
mouse TREM2 on cells [1] = molecular target: T1, mouse TREM2 on cells; test: KD cell binding
[2] = molecular target: T2, recombinant human TREM2-DAP12 fusion …; test: KD cell binding
[3] = molecular target: T2, recombinant human TREM2-DAP12 fusion …; test: FACS, HEKhT2 cells
[4] = molecular target: T3, human TREM2 on primary cells; test: FACS, primary hMAC
[5] = molecular target: T3, human TREM2 on primary cells; test: FACS, primary hDC
mouse TREM2 on cells [6] = molecular target: T1, mouse TREM2 on cells; test: FACS on thioglycollate-induced macrophages of wild-type mice (mouse TREM2 only), gated CD11b+ F4/80+

| Binder | Kd (mouse TREM2 on cells [1]) | Kd [2] | MFI HEKhT2 [3] | % Positive hMAC [4] | % Positive hDC [5] | binding result (mouse TREM2 on cells [6]) |
| --- | --- | --- | --- | --- | --- | --- |
| 2H8 (antibody, IgG1, V domains shown, mIgG1) VH: EVQLVESGGGLVQPKGSLKLSCAASGFSFNTYAMNWVRQAPGKGLEWIARIRSKSNNYATYYADSVKDRFTCSRDDSENMFYLQLSSLKTEDTAMYYCVRHGDGNLWYIDVWGTGTTVTVSS VL: NVLTQSPALMSASPGEKVTMTCSASSSVSYMYWYQQKPRSSPKPWIYLTSILASGVPARFSGSGSGTSYSLTISSMEAEDAATYYCQQWSFNPYTFGGGTKLVIK | 6.86 nM |  |  |  |  |  |
| 7F8 (antibody, IgG1, V domains shown, mIgG1) VH: EVQLVESGGGLVQPKGSLKLSCAASGFSFNTYAMNWVRQAPGKGLEWIARIRSKSNNYATYYADSVKDRITCSRDDSENMFYLQLSSLKTEDTAMYYCVRHGDGNLWYIDVWGTGTTVTVST VL: VLTQSPALMSASPGEKVTMTCSASSSVSYMYWYQQKPRSSPKPWIYLTSILASGVPARFSGSGSGTSYSLTINNMEAEDAATYYCQQWSFNPYTFGGGTKLVIK | 1.78 nM |  |  |  |  |  |
| 3A2 (antibody, IgG1, V domains shown, mIgG1; variable domains built FR1-HVR1-FR2-HVR2-FR3-HVR3-FR4) VH: QVQLQQSGAELVKPGASVKMSCKTSGYPFSNFWITWVKQRPGQGLVWIGDIYPGSDNSNYNEKFKTKATLTVDTSSSTAYMHLSSLTSEDSAVYFCAREAYYTNPGFAYWGQGTLVTVST VL: DVVMTQTPLSLPVSLGDQASISCRSSQTIIHSNGNTYLEWYLRKPGQSPKLLIYKVSNRFSGVPDRFSGSGSGTDFTLKISRVEAEDLGVYYCFQGSHVPYTFGGGTELEIK |  | 4.98 nM | 7300 MFI | 18% | 77% |  |
| 6H2 (antibody, IgG2a, V domains shown, mIgG2a) VH: QVQLQESGPGLVQPSQSLSIICTVSAFSLTNYAVHWIRQSPGKGLEWLGVIWSGGSTAFNAAFISRLNISKDNSKSQVFFKMNSLQSDDTAIYYCATHYYRSTYAFSYWGQGTLVTVSA VL: DVLMTQTPLSLPVSLGDQASISCRSSQSIVHSNGNTYLEWYLQKPGQSPKLLIYKVSNRFSGVPDRFSGSGSGTDFTLKISRVEAEDLGVYYCFQGSHVPFTFGSGTKLEIK |  | 5.4 nM | 13500 MFI |  | 83.9% |  |
| 10A9 (antibody, IgG1, V domains shown, mIgG1) VH: QVQLQQSGAEVVKPGASVKMSCKTSGYPFSNFWITWVKQRPGQGLVWIGDIYPGSDNRNFNERFKTKATLTVDTSSSTAYMHLSSLTSEDSAVYFCAREAYYTNPGFAYWGQGTLVTVSA VL: DVVMTQTPLSLPVSLGDQASISCRSSQTIIHSNGNTYLEWYLRKPGQSPKLLIYKVSNRFCGVPDRFSGSGSGTDFTLKISRVEAEDLGVYYCFQGSHVPYTFGGGTELEIK |  | 4.24 nM | 11900 MFI | 64% | 96% | no binding |
| 9G1 (antibody, IgG1, V domains shown, mIgG1) VH: QVQLQQSGAELVKPGASVKLSCKASGYIFTTYWIHWVKQRPGRGPEWIGRIDPNNGDTNYNEKFKTKATLTVDKPSSTADMQLSSLTSEDSAVYYCVMTGTDFDYWGQGTTLTVSS VL: DVLMTQTPLSLPVSLGDQASISCRFSQSLVHSNGNTYLHWYLQKPGQSPKLLIYKVSNRFSGVPDRFSGSGSGTDFTLRISGVEAEDLGVYFCSQSTRVPPTFGGGTKLEIK |  | 9.06 nM | 3080 MFI | 20% | 60% |  |
| 8A1 (antibody, IgG2a, V domains shown, mIgG2a) VH: EVQLQQSGAELVKPGASVKISCKASGYAFSNYWMSWVKQRPGKGLEWIGQIYPGDGDTKYNGKFEGKATLTADKSSSTAYMQLSSLTSEDSAVYFCSREKGADYYGSTYSAWFSYWGQGTLVTVSA VL: DIQMTQSPASLSVSVGETVTITCRTSENVYSNLAWYQQKQGKSPQLLVYAATNLADGVPSRFSASGSATQFSLKINSLQSADFGSYYCHHFWGTPYTFGGGTKLEMN |  | 4.64 nM | 11000 MFI | 34% | 94% |  |
